Biological target: soluble BCMA (B-cell maturation antigen) (UniProt Q02223)
Experiment: SPR

Chain of soluble BCMA (B-cell maturation antigen) (Q02223 1-54): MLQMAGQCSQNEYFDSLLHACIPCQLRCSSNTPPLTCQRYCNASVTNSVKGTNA

Kd: 2.89 nM
koff: 0.0162 s⁻¹
Substance: LCAR-B38M (Nanjing_GSI5022_Dual_VHH)

— PMC10314698
